Test results reported in the DeepSol protein solubility set.

Assay: soluble on expression in E. coli; label from the status in PepcDB or PDB records
For “MTQKIEQSQRQERVAAWNRRTECDLAAFQNSPKQTYQAEKARDRKLCANLEEAIRRSGLQDGMTVSFHHAFRGGDLTVNMVMDVIAKMGFKNLTLASSSLSDCHAPLVEHIRQGVVTRIYTSGLRGPLAEEISRGLLAEPVQIHSHGGRVHLVQSGELNIDVAFLGVPSCDEFGNANGYTGKACCGSLGYAMVDADNAKQVVMLTEELLPYPHNPASIEQDQVDLIVKVNRVGDAAKIGAGTTRMTTNPRELLIARSAADVIVNSGYFKEGFSMQTGTGGASLAVTRFLEDKMRSRDIRADFALGGITATMVDLHEKGLIRKLLDVQSFDSHAAQSLARNPNHIEISANQYANWGSKGASVDRLDVVVLSALEIDRQFNVNVLTGSDGVLRGASGGHCDTAIASALSIIVAPLVRGRIPTLVDNVLTCITPGSSVDILVTDHGIAVNPARPELAERLQEAGIKVVSIEWLRERARLLTGEPQPIEFTDRVVAVVRYRDGSVIDVVHQVKELEHHHHHH”, the “soluble on expression in E. coli” value was “soluble”. With “MTQLCSDVRVSPLPGTAKVGDTYILFEHHGPWSHDILDGGTFDKETSAALKAMGCGFYLIRRHGREGRIERPKKTAYLVFGSAGIAEKLMVDDVTDLLKLDVSGPGKNRQFGAEQEAQPIILVCTHAKRDACCAIKGRPMAQALTEEFPDSPVWECSHTKGHRFAPSMVLMPWGYTWGQLNKPAAFDMYRYAQRGQLFLPGNRGRGIWPMKGQIAEVAVAQQLAQEGETVTLGQLRVESIEEAQAHVADSHTARTWTVFLREEVVAGIVDSCHKPPKTGTAWVADRVKENGALEHHHHHH” the “soluble on expression in E. coli” value was “soluble”. In the case of “MTQPEAVFFDCDGTLVDSEVICSRAYVHMFQEFGITLDLAEIFKRFKGVKLYEIIDTINAEYGVNLQKATLEPIYRAEVARLFDSELEVIPGAQALLDAVSVPMCVVSNGPVSKMQHSLGRTGLLRHFTDRLYSGYDIQRWKPDPALMFHAAEAMQVKAENCILVDDSSAGAQSGIAAGMEVFYFCADPHNQPIDHPKVTTFTDLAELPALWQARGWDITR”, the “soluble on expression in E. coli” value is reported as “not soluble”. With “MTQTYNADAIEVLTGLEPVRRRPGMYTDTTRPNHLGQEVIDNSVDEALAGHAKRVDVILHADQSLEVIDDGRGMPVDIHPEEGVPAVELILCRLHAGGKFSNKNYQFSGGLHGVGISVVNALSKRVEVNVRRDGQVYNIAFENGEKVQDLQVVGTCGKRNTGTSVHFWPDETFFDSPRFSVSRLTHVLKAKAVLCPGVEITFKDEINNTEQRWCYQDGLNDYLAEAVNGLPTLPEKPFIGNFAGDTEAVDWALLWLPEGGELLTESYVNLIPTMQGGTHVNGLRQGLLDAMREFCEYRNILPRGVKLSAEDIWDRCAYVLSVKMQDPQFAGQTKERLSSRQCAAFVSGVVKDAFILWLNQNVQAAELLAEMAISSAQRRMRAAKKVVRKK” the “soluble on expression in E. coli” value was “soluble”. In the case of “MTQVPPSASPADLLAVLERIATALERQGAPAVPANSLDGADAFVWHAAESWLEPVCRVNRVDIALLQGIERQRQTLYDNTLRFAHGLPANNALLWGARGTGKSSLVKAVHASVNQALTAKGAAPVALVEIHREDIPTLPRLLRILAASGRPCLLFCDDLSFDGNDSSYKSLKAVLEGGIEGRPDTVIFYATSNRRHLLAREMVENEQSTALHAGEAVEEKVSLSDRFGLWLGFHNVDQPTYFDIVDGYARAYGLDIETEDLHREAREWSMARGSRSGRTAWQFIQDLAGRLGKTLELEHHHHHH”, the “soluble on expression in E. coli” value is reported as “soluble”. In the case of “MTQYQALIIGFGKAGKTLAATLAKTGWRVAIIEQSASMFGGTCINIGCIPTKTLVHDAEREGDFSVAMQRKAAVVNFLRDKNFHNLADLDNVDVIEGRAEFIDNHTLRVFQADGERVLRGEKIFINTGAESVIPAITGLTTTAGVFDSTGLLSLSQRPARLGILGGGYIGLEFASMFANFGTKVTIFEAAPQFLPREDRDIAQAITRILQEKGVELILNANVQAVSSKEGAVQVETPEGAHLVDALLVASGRKPATAGLQLQNAGVAVNERGGIIVDDYLRTTADNIWAMGDVTGGLQFTYISLDDFRIVRDGLLGDGKRSTRDRQNVPYSVFMTPPLSRVGLTEEQARASGATVQVVTLPVAAIPRARVMNDTRGVLKAVVDVNTQRIVGVSLLCVDSHEMINIVKTVMDADLPYTVLRDQIFTHPTMSESLNDLFSLIK”, the “soluble on expression in E. coli” value is reported as “not soluble”. For “MTRAERKRQHINHALSIGQKRETGLDDITFVHVSLPDLALEQVDISTKIGELSSSSPIFINAMTGGGGKLTYEINKSLARAASQAGIPLAVGSQMSALKDPSERLSYEIVRKENPNGLIFANLGSEATAAQAKEAVEMIGANALQIHLNVIQEIVMPEGDRSFSGALKRIEQICSRVSVPVIVKEVGFGMSKASAGKLYEAGAAAVDIGGYGGTNFSKIENLRRQRQISFFNSWGISTAASLAEIRSEFPASTMIASGGLQDALDVAKAIALGASCTGMAGHFLKALTDSGEEGLLEEIQLILEELKLIMTVLGARTIADLQKAPLVIKGETHHWLTERGVNTSSYSVR”, the “soluble on expression in E. coli” value was “soluble”. For “MTRHGKNSTAASVYTYHERRRDAKASGYGTLHARLGADSIKEFHCCSLTLQPCRNPVISPTGYIFDREAILENILAQKKAYAKKLKEYEKQVAEESAAAKIAEGQAETFTKRTQFSAIESTPSRTGAVATPRPEVGSLKRQGGVMSTEIAAKVKAHGEEGVMSNMKGDKSTSLPSFWIPELNPTAVATKLEKPSSKVLCPVSGKPIKLKELLEVKFTPMPGTETAAHRKFLCPVTRDELTNTTRCAYLKKSKSVVKYDVVEKLIKGDGIDPINGEPMSEDDIIELQRGGTGYSATNETKAKLIRPQLELQ”, the “soluble on expression in E. coli” value was “soluble”. In the case of “MTRRVLLLSASVLLATAGYAPEPYYNKYGGYHKALDKKHGGYEADQTGYGGHNGMSDYGNEQGAYGHYDGKYGEAGKKSGQEYYAKGDEHGHGDEAHEKGLKKNGDAYGGKKFSYFTSGSGPYGSYQKGYYGSDGYEHDDHKSKYSSHNEDNGFKKGYDGAGAGHDDKYTSYDKEDAGHKKHHDKYDIGKYGAKQGGYAKQGHEEGWKNEAQKNSYGSRENGQEYGHPYY”, the “soluble on expression in E. coli” value is reported as “not soluble”. In the case of “MTRSRLKIDRHGKEEDAMDLIDTHQHLILRGKLGYAWTRGEPSLAGSFTRADYAALVEGSGVIGTIFMETGVDDGDYRAEARLVAGMVGEGTLPMFGQIASCRPETDQGFDAWLEECRHLKVVGFRRILQVMPDDTSRAENYRRNVRKIGKAGWPVDLCFHSRQLAIAAELVRACPDVRFMLDHCGTPDIAGNDFPAWSERMADLASLPNLFVKLSGVTAYCAPGQVTLESVRPYVETVLKLFGPARMVWGGDWPVVDLGSGLPEWIAMTREFLSTLSPDEQASIGHGNARRFYLATLEHHHHHH”, the “soluble on expression in E. coli” value is reported as “not soluble”. In the case of “MTRTPFSRRRFLQLSGGLALAGVSLPLWAHDMADMAGGDAHPALRLPEPYKIKLAINKSAVCLAPVAVAEQQKIFSKYNLDVEFVNFGNSTDVLLEAIATGKADAGVGMALRWLKALEQGFDVKLTAGTHGGCLNLLTAKDSPFGGLESLKGQTIGVTDMAGPDKNFFAILLKRHGIDPISDVQWKVYPADLLSVALDKREIAAISGSEPFSYRLLETGKYQLIASNMTGDYANLSCCVLGVSGSLARDHKPAAAALTQAILEAHSYAAAHPESVAQSFLAHALNTSEAEVSGILHGQGHGHHAVGEAFVKELTQYAVDLQRVQVIKPGTDPHQFAESIYANVFA”, the “soluble on expression in E. coli” value is reported as “not soluble”. In the case of “MTRYLDISLGIVRDYYEAAPVKVVFVKDHPRLPTPGGIINARRGDEVELPRWQARMLREKGYVEYKEKIVDIDYVNLVHYHEVKKSAANSLLGVPSDFYLRVKELVEDLDRRIRENPGYMLFQDRENVERAIMQISERRLVKMMRLVLSGGGEEVRERLTVEENLVYSMAEEVVKGWKEYVKSLVGRR”, the “soluble on expression in E. coli” value is reported as “not soluble”. In the case of “MTSITVQLRSGLDGVYFALKQMSGLRAKLLLVGNENPVPTVLPASQRGTPFPGGNTMTQASLIRLSELNNDAQYNLNDTSMYNPVGAAAYGVNGDKIGTVRDALVEPETGRIRYFLVDVGGWFSSKEVLVPVGYGRVDDSGVYFDSLTKDQVKDMSEYRADQAYSSEMMDTDERVLRGNQSQEEYHQRAYQTPDRLQLLEERLVVNKDRFKAGSVQIGKRIETRQETVSVPLQREEVVIERHAVTDGRAVEGAVLGEGHQTMSVDLEAERANISKQAYVTEEVSVGKRAVTETQQVTETVGREVLDVNQTGDVRTTEGTALTDDTTKRNILEHHHHHH”, the “soluble on expression in E. coli” value is reported as “soluble”.
